{"source": "patent US20190071480A1", "about": "(Biogen, published 2019)", "binders": {"B1": {"name": "Recombinant polypeptide of clones 9 + 11 (designed binder)", "chain": "AQAKHKGYKRLKSSCKRHPLYAQAKHKGRKRLKSSCKRHPLY"}, "B2": {"name": "Recombinant polypeptide of clones 11 + 9 (designed binder)", "chain": "B1 chain with Y8R, R29Y"}, "B3": {"name": "Clone No. 21 domain (ActRIIBecd-associated polypeptide) (peptide)", "chain": "NSKIPKACCVPTELSAISMLYLDENEKVVLKNYQDMVVEGCGCR"}, "B4": {"name": "Clone No. 19 domain (ActRIIBecd-associated polypeptide) (peptide)", "chain": "B3 chain with I4D, I17P, M19P, V28P, E39H"}, "B5": {"name": "Clone No. 23 domain (ActRIIBecd-associated polypeptide) (peptide)", "chain": "B3 chain with V28P"}, "B6": {"name": "Clone No. 22 domain (ActRIIBecd-associated polypeptide) (peptide)", "chain": "B3 chain with M19P, E39H"}, "B7": {"name": "Clone No. 24 domain (ActRIIBecd-associated polypeptide) (peptide)", "chain": "B3 chain with I4D, E39H"}, "B8": {"name": "Recombinant polypeptide of clones 17 + 18 (designed binder)", "chain": "VDFSDVGWNDWIVAPPGYHAFYCHGECPFPLADHLNSDNHAIVQTLVNSVVDFSDVGWNDHAVAPPGYHAFYCHGECPFPLADHLNSTNHAIVQTLVNSV"}, "B9": {"name": "Recombinant polypeptide of clones 23 + 24 (designed binder)", "chain": "NSKIPKACCVPTELSAISMLYLDENEKPVLKNYQDMVVEGCGCRNSKDPKACCVPTELSAISMLYLDENEKVVLKNYQDMVVHGCGCR"}, "B10": {"name": "Recombinant polypeptide of clones 24 + 23 (designed binder)", "chain": "B9 chain with I4D, P28V, E39H, D48I, V72P, H83E"}, "B11": {"name": "SEQ ID NO: 348, cysteine pairs C29-C30^a (designed binder)", "chain": "GQAKRKGYKRLKSSCKRHPLYNSKIPKACCVPTELSAISMLYLDENEKVVLKNYQDMVVEGCGCRVDFSDVGWNDWIVAPPGYHAFYCHGECPFPLADHLNSTNHAIVQTLVNSV", "modifications": "disulfides C29-C30 (intra)"}, "B12": {"name": "SEQ ID NO: 348, cysteine pairs C15-C15^b, C29-C64^a, C30-C62^a, C88-C92^a (designed binder)", "chain": "B11 chain", "modifications": "disulfides C15-C15 (inter), C29-C64 (intra), C30-C62 (intra), C88-C92 (intra)", "notes": "homodimer by intermolecular disulfide"}, "B13": {"name": "SEQ ID NO: 348, cysteine pairs C15-C15^b, C29-C62^b, C30-C64^b, C88-C92^a (designed binder)", "chain": "B11 chain", "modifications": "disulfides C15-C15 (inter), C29-C62 (inter), C30-C64 (inter), C88-C92 (intra)", "notes": "as for B12"}, "B14": {"name": "Clone No. 25 domain (ActRIIBecd-associated polypeptide) (peptide)", "chain": "TYPASPKPMRHKMRSCACCAGGLRNRTGTV"}, "B15": {"name": "Clone No. 26 domain (ActRIIBecd-associated polypeptide) (peptide)", "chain": "B14 chain with K12S, R26Q"}, "B16": {"name": "Recombinant polypeptide of clones 16 + 26 (designed binder)", "chain": "VDFSDVGWNDWAVAPPGYHAFYCHGECPFPLADHLNSDNHAIVQTLVNSVTYPASPKPMRHSMRSCACCAGGLRNQTGTV"}, "B17": {"name": "SEQ ID NO: 332, cysteine pairs C15-C15^b, C80-C114^b, C79-C112^b, C44-C48^a (designed binder)", "chain": "GQAKRKGYKRLKSSCKRHPLYVDFSDVGWNDWIVAPPGYHAFYCHGECPFPLADHLNSTNHAIVQTLVNSVNSKDPKACCVPTELSAPSPLYLDENEKPVLKNYQDMVVHGCGCR", "modifications": "disulfides C15-C15 (inter), C80-C114 (inter), C79-C112 (inter), C44-C48 (intra)", "notes": "as for B12"}, "B18": {"name": "Recombinant polypeptide of clones 12 + 25 (designed binder)", "chain": "AQAKHKQYKRLKSSCKRHPLYTYPASPKPMRHKMRSCACCAGGLRNRTGTV"}, "B19": {"name": "Clone No. 28 domain (ActRIIBecd-associated polypeptide) (peptide)", "chain": "EPLGGARWEAFDVTDAVQSHRRSPRASRKCCLGLRAVTAS"}, "B20": {"name": "Clone No. 29 domain (ActRIIBecd-associated polypeptide) (peptide)", "chain": "B19 chain with P24Q, G33V"}}, "key": {"[1]": {"molecular_target": "T1, extracellular domain of activin receptor type IIB (ActRIIBecd), biotinylated (Homo sapiens (Human), UniProt Q13705 27-117, amino-biotinylated with amine-PEG3-Biotin)", "T1 construct": "immobilised on a streptavidin-coated sensor chip; also called biotinylated ActRIIBecd; extracellular domain of ActRIIB", "T1 sequence": "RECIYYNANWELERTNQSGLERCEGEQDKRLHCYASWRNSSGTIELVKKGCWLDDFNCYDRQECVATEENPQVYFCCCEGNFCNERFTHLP", "experiment": "BIAcore SPR, biotinylated ActRIIBecd on chip; SD ±19.71 nM", "description": "(§1) Biosensor experiments. In one embodiment, experiments were performed on a BIAcore™ T100/T200 instrument (Pharmacia Biosensor AB) in the multichannel mode (serial flow path involving flow cells 1+2+3+4). Flow rate was 10 μl/min; temperature was 25° C.; and data were recorded at 2.5 points/s. All four segments of a sensor chip CMS were coated with streptavidin (Sigma) to a density of 2000 pg/mm² (2000 resonance units) by the aminocoupling procedure. ActRIIBecd (10 mg) and amine-PEG3-Biotin (10 mg, Pierce, Rockford, Ill.) were dissolved in 200 μl H₂O and 10 mg NaCNBH₃ was added to prepare biotinylated ActRIIBecd. The reaction mixture was heated at 70° C. for 24 h, after that a further 10 mg NaCNBH₃ was added and the reaction was heated at 70° C. for another 24 h. After cooling to room temperature, the mixture was desalted with the spin column (3,000 molecular weight cut off (MWCO)). […] Sensograms were recorded during flow of the analyte (the ActRIIBecd-associated polypeptides (i.e., domains) as previously described) first through flow cell 1 (control) then through flow cell 2 (biotinylated ActRIIBecd). […] The sensograms obtained at 1.11, 3.33, 10, 30, and 90 nM analyte were evaluated for equilibrium binding, association rate, and dissociation rate by using the programs supplied with the instrument (BIA evaluation 2.1; Software Handbook. 1995; Pharmacia Biosensor AB)."}, "[2]": {"molecular_target": "T1, extracellular domain of activin …", "experiment": "BIAcore SPR, biotinylated ActRIIBecd on chip; SD ±18.15 nM", "description": "as §1"}, "[3]": {"molecular_target": "T1, extracellular domain of activin …", "experiment": "BIAcore SPR, biotinylated ActRIIBecd on chip; SD ±11.88 nM", "description": "as §1"}, "[4]": {"molecular_target": "T1, extracellular domain of activin …", "experiment": "BIAcore SPR, biotinylated ActRIIBecd on chip; SD ±13.69 nM"}, "[5]": {"molecular_target": "T1, extracellular domain of activin …", "experiment": "BIAcore SPR, biotinylated ActRIIBecd on chip; SD ±17.42 nM", "description": "as §1"}, "[6]": {"molecular_target": "T1, extracellular domain of activin …", "experiment": "BIAcore SPR, biotinylated ActRIIBecd on chip; SD ±18.52 nM", "description": "as §1"}, "[7]": {"molecular_target": "T1, extracellular domain of activin …", "experiment": "BIAcore SPR, biotinylated ActRIIBecd on chip; SD ±13.59 nM", "description": "as §1"}, "[8]": {"molecular_target": "T1, extracellular domain of activin …", "experiment": "BIAcore SPR, biotinylated ActRIIBecd on chip; SD ±19.56 nM", "description": "as §1"}, "[9]": {"molecular_target": "T1, extracellular domain of activin …", "experiment": "BIAcore SPR, biotinylated ActRIIBecd on chip; SD ±15.74 nM", "description": "as §1"}, "[10]": {"molecular_target": "T1, extracellular domain of activin …", "experiment": "BIAcore SPR, biotinylated ActRIIBecd on chip; SD ±17.84 nM", "description": "as §1"}, "[11]": {"molecular_target": "T1, extracellular domain of activin …", "experiment": "Mean KD column of Table 5; method not restated (BIAcore as Example 5); species also listed in Table 4", "how_it_was_run": "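Kinetics read-out: ka, kd and equilibrium binding, fitted from sensograms after blank-cell subtraction. Setup comprised a streptavidin chip, biotin-ActRIIBecd loaded at 50-250 RU, analytes in glycine pH 4.5, flow 10 μl/min, temperature 25° C.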"}, "[12]": {"molecular_target": "T1, extracellular domain of activin …", "experiment": "BIAcore SPR as Example 5 (method not restated); SD ±3.33 nM", "description": "as §1"}, "[13]": {"molecular_target": "T1, extracellular domain of activin …", "experiment": "BIAcore SPR as Example 5 (method not restated); SD ±1.92 nM", "description": "as §1"}, "[14]": {"molecular_target": "T1, extracellular domain of activin …", "experiment": "BIAcore SPR as Example 5 (method not restated); SD ±1.45 nM", "description": "as §1"}, "[15]": {"molecular_target": "T1, extracellular domain of activin …", "experiment": "BIAcore SPR, biotinylated ActRIIBecd on chip; SD ±14.15 nM", "description": "as §1"}, "[16]": {"molecular_target": "T1, extracellular domain of activin …", "experiment": "BIAcore SPR, biotinylated ActRIIBecd on chip; SD ±16.14 nM", "description": "as §1"}, "[17]": {"molecular_target": "T1, extracellular domain of activin …", "experiment": "BIAcore SPR, biotinylated ActRIIBecd on chip; SD ±19.11 nM", "description": "as §1"}, "[18]": {"molecular_target": "T1, extracellular domain of activin …", "experiment": "BIAcore SPR as Example 5 (method not restated); SD ±1.94 nM", "description": "as §1"}, "[19]": {"molecular_target": "T1, extracellular domain of activin …", "experiment": "BIAcore SPR, biotinylated ActRIIBecd on chip; SD ±12.34 nM", "description": "as §1"}, "[20]": {"molecular_target": "T1, extracellular domain of activin …", "experiment": "BIAcore SPR, biotinylated ActRIIBecd on chip; SD ±14.42 nM", "description": "as §1"}, "[21]": {"molecular_target": "T1, extracellular domain of activin …", "experiment": "BIAcore SPR, biotinylated ActRIIBecd on chip; SD ±13.44 nM", "description": "as §1"}}, "note": "Changes are numbered by the printed parent chain."}
{"binder": "B1", "values": [{"measurement": "Kd", "setting": "[1]", "value": 59.1, "unit": "nM"}]}
{"binder": "B2", "values": [{"measurement": "Kd", "setting": "[2]", "value": 58.2, "unit": "nM"}]}
{"binder": "B3", "values": [{"measurement": "Kd", "setting": "[3]", "value": 37.1, "unit": "nM"}]}
{"binder": "B4", "values": [{"measurement": "Kd", "setting": "[4]", "value": 40.1, "unit": "nM"}]}
{"binder": "B5", "values": [{"measurement": "Kd", "setting": "[5]", "value": 64.4, "unit": "nM"}]}
{"binder": "B6", "values": [{"measurement": "Kd", "setting": "[6]", "value": 51.7, "unit": "nM"}]}
{"binder": "B7", "values": [{"measurement": "Kd", "setting": "[7]", "value": 56.7, "unit": "nM"}]}
{"binder": "B8", "values": [{"measurement": "Kd", "setting": "[8]", "value": 65.8, "unit": "nM"}]}
{"binder": "B9", "values": [{"measurement": "Kd", "setting": "[9]", "value": 61.8, "unit": "nM"}]}
{"binder": "B10", "values": [{"measurement": "Kd", "setting": "[10]", "value": 62.7, "unit": "nM"}]}
{"binder": "B11", "values": [{"measurement": "Kd", "setting": "[11]", "value": 29.1, "unit": "nM"}, {"measurement": "Kd", "setting": "[12]", "value": 29.1, "unit": "nM"}]}
{"binder": "B12", "values": [{"measurement": "Kd", "setting": "[11]", "value": 6.77, "unit": "nM"}, {"measurement": "Kd", "setting": "[13]", "value": 6.77, "unit": "nM"}]}
{"binder": "B13", "values": [{"measurement": "Kd", "setting": "[11]", "value": 6.31, "unit": "nM"}, {"measurement": "Kd", "setting": "[14]", "value": 6.31, "unit": "nM"}]}
{"binder": "B14", "values": [{"measurement": "Kd", "setting": "[15]", "value": 41.1, "unit": "nM"}]}
{"binder": "B15", "values": [{"measurement": "Kd", "setting": "[16]", "value": 39.6, "unit": "nM"}]}
{"binder": "B16", "values": [{"measurement": "Kd", "setting": "[17]", "value": 57.8, "unit": "nM"}]}
{"binder": "B17", "values": [{"measurement": "Kd", "setting": "[11]", "value": 7.42, "unit": "nM"}, {"measurement": "Kd", "setting": "[18]", "value": 7.42, "unit": "nM"}]}
{"binder": "B18", "values": [{"measurement": "Kd", "setting": "[19]", "value": 51.2, "unit": "nM"}]}
{"binder": "B19", "values": [{"measurement": "Kd", "setting": "[20]", "value": 53.8, "unit": "nM"}]}
{"binder": "B20", "values": [{"measurement": "Kd", "setting": "[21]", "value": 57.9, "unit": "nM"}]}
